Results taken from patent US20100104509A1, “HUMAN ANTIBODIES THAT BIND CD19 AND USES THEREOF” (Medarex, Inc., priority 2006, published 2010).
“And” between values parts separate entries of the source, which are not always exact repeats. Equal entries are not always repeated.

Tests used:
[1] = Differential scanning calorimetry; format: physicochemical; details: 2.3 μM in PBS pH 7.4, 30 to 95° C. at 1° C./min
Description: The thermal stability of the anti-CD19 monoclonal antibodies were compared using calorimetric analysis of their melting temperatures.
Calorimetric measurements of melting Temperatures™ were carried out on a VP-Capillary DSC differential scanning microcalorimeter platform that is combined with an autosampler (MicroCal LLC, Northampton, Mass., USA). Sample cell volume is 0.144 mL. Denaturation data on the glycosylated and deglycosylated forms of the antibodies was obtained by heating the samples, at a concentration of 2.3 μM, from 30 to 95° C. at a rate of 1° C./min. The protein samples were present in phosphate-buffered saline (PBS) at pH 7.4. The same buffer was used in the reference cell to obtain the molar heat capacity by comparison. The observed thermograms were baseline corrected and normalized data analyzed based on a 2-state model, using the software Origin v7.0.

[2] = Capillary isoelectric focusing; format: physicochemical; details: capillary isoelectric focusing kit assay; listed as fucosylated 21D4a
Raji B cell line = target: T1, Raji B cell line (Homo sapiens, UniProt P15391); test: Flow cytometry binding to Raji cells
T1 construct: the CD19 protein is expressed on the surface of tumor cell lines of B cell origin; host or cells: Raji (human Burkitt's lymphoma B cell line)
T1 sequence (P15391 20-556): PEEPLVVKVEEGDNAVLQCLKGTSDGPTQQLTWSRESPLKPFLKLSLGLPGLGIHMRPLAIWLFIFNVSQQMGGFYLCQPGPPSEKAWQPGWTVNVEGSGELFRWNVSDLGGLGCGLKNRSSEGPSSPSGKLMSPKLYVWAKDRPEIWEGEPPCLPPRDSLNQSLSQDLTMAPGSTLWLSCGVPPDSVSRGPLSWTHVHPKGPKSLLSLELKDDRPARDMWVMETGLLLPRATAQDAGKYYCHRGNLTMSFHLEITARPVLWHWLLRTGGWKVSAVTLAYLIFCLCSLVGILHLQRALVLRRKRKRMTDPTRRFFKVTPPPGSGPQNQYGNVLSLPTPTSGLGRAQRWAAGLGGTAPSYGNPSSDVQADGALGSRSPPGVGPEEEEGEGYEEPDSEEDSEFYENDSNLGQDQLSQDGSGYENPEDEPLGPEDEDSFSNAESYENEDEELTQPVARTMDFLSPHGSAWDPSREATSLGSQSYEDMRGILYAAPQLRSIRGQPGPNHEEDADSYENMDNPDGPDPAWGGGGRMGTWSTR
Description: Binding of the CD19 HuMAbs by flow cytometry to the B cell tumor lines Raji and Daudi, or to a CHO-CD19 transfected cell line was assessed. CHO cells were transfected with an expression plasmid containing the full length cDNA encoding the transmembrane form of CD19. […] A known murine anti-CD19 antibody was used as a positive control. The cells were washed and detected by either a phycoerythrin-labeled anti-human or anti-mouse secondary antibody and analyzed by flow cytometry. The results for binding to the CHO-CD19 cell line, Daudi B cell line, Raji B cell line and an expanded binding set against the Raji B cell line are shown in FIGS. 25A, 25B, 25C and 25D, respectively. […] All results are shown as measured by the geometric mean fluorescent intensity (GMFI) of staining.

[3] = Chemical denaturation by fluorescence spectroscopy; format: physicochemical; details: guanidinium hydrochloride in PBS, 24 hours, 2 μM antibody
Description: The stability of anti-CD19 monoclonal antibodies were compared by measuring the midpoint of chemical denaturation by fluorescence spectroscopy.
Fluorescence measurements of chemical denaturation were performed on a SPEX Fluorolog 3.22 with a Micromax plate reader (SPEX, Edison, N.J.). The measurements were performed on antibody samples that had been left for 24 hours to equilibrate in 16 different concentrations of guanidinium hydrochloride in PBS buffer. The measurements were made in black, low volume, non-binding surface 384-well plates (Corning, Acton, Mass.) and required 2 μM of antibody in a well volume of 12 μL Fluorescence was excited at 280 nm and the emission spectra were measured between 300 and 400 nm. The scan speed was 1 second per nm and slits were set to 5 nm bandpass. A buffer blank was performed using PBS and automatically subtracted from the data.

Row | Molecule | Thermo Stability Tm1 [1] [°C] | observed pI values [2] | binding by flow cytometry (GMFI) (Raji B cell line) | Unfolding Midpoint [3] [M] | Aggregation Peak [3] [M]
1 | 21D4a: human monoclonal anti-CD19 antibody, VH SEQ ID NO: 1 and VL SEQ ID NO: 9 (antibody, listed as Homo sapiens, V domains shown) VH: EVQLVQSGAEVKKPGESLKISCKGSGYSFSSSWIGWVRQMPGKGLEWMGIIYPDDSDTRYSPSFQGQVTISADKSIRTAYLQWSSLKASDTAMYYCARHVTMIWGVIIDFWGQGTLVTVSS VL: AIQLTQSPSSLSASVGDRVTITCRASQGISSALAWYQQKPGKAPKLLIYDASSLESGVPSRFSGSGSGTDFTLTISSLQPEDFATYYCQQFNSYPFTFGPGTKVDIK | 69.7 | 8.44 pH and 8.21 pH | bound to the Raji B cell line | 2.97 | –
2 | 46E8: human monoclonal anti-CD19 antibody, VH SEQ ID NO: 7 and VL SEQ ID NO: 15 (antibody, listed as Homo sapiens, V domains shown) VH: EVQLVQSGAEVKKPGESLQISCKGSGYTFTNYWIAWVRQMPGKGLEWMGIIYPGDSDTRYSPSFQGQVTISADKSISTAYLQWSGLKASDTAMYYCARQGYSSGWRSYYGMGVWGQGTTVTVSS VL: AIQLTQSPSSLSASVGDRVTITCRASQGISSALAWYQQKPGKAPKLLIYDASSLESGVPSRFSGSGSGTDFTLTISSLQPEDFATYYCQQFNSYPHTFGQGTKLEIK | 66.4 | – | – | 2.43 | 2.16
3 | 5G7-N19Q: 5G7 with N-I-S sequence starting at position 19 changed to Q-I-S (antibody, V domains shown) VH: EVQLVQSGAEVKKPGESLQISCKGSGYSFTSYWIGWVRQMPGKGLEWMGIIYPGDSDTRYSPSFQGQVTISADKSINTAYLQWSSLKASDTAMYYCARGVSMIWGVIMDVWGQGTTVTVSS VL: AIQLTQSPSSLSASVGDRVTITCRASQGISSALAWYQQKPGKAPKLLIYDASSLESGVPSRFSGSGSGTDFTLTISSLQPEDFATYYCQQFNSYPWTFGQGTKVEIK | – | – | bound to the Raji B cell line | – | –
4 | 5G7-N19K: 5G7 with N-I-S sequence starting at position 19 changed to K-I-S (antibody, V domains shown) VH: EVQLVQSGAEVKKPGESLKISCKGSGYSFTSYWIGWVRQMPGKGLEWMGIIYPGDSDTRYSPSFQGQVTISADKSINTAYLQWSSLKASDTAMYYCARGVSMIWGVIMDVWGQGTTVTVSS VL: AIQLTQSPSSLSASVGDRVTITCRASQGISSALAWYQQKPGKAPKLLIYDASSLESGVPSRFSGSGSGTDFTLTISSLQPEDFATYYCQQFNSYPWTFGQGTKVEIK | – | – | bound to the Raji B cell line | – | –
5 | 13F1: human monoclonal anti-CD19 antibody, VH SEQ ID NO: 6 and VL SEQ ID NO: 14 (antibody, listed as Homo sapiens, V domains shown) VH: EVQLVQSGAEVKKPGESLQISCKGSGYTFTNYWIAWVRQMPGKGLEWMGIIYPGDSDTRYSPSFQGQVTISADKSISTAYLQWSGLKASDTAMYYCARQGYSSGWRSYYGMGVWGQGTTVTVSS VL: AIQLTQSPSSLSASVGDRVTITCRASQGISSALAWYQQKPGKAPKLLIYDASSLESGVPSRFSGSGSGTDFTLTISSLQPEDFATYYCQQFNSYPHTFGQGTKLEIK | – | – | bound to the Raji B cell line | – | –
6 | 5G7: human monoclonal anti-CD19 antibody, VH SEQ ID NO: 5 and VL SEQ ID NO: 13 (antibody, listed as Homo sapiens, V domains shown) VH: EVQLVQSGAEVKKPGESLNISCKGSGYSFTSYWIGWVRQMPGKGLEWMGIIYPGDSDTRYSPSFQGQVTISADKSINTAYLQWSSLKASDTAMYYCARGVSMIWGVIMDVWGQGTTVTVSS VL: AIQLTQSPSSLSASVGDRVTITCRASQGISSALAWYQQKPGKAPKLLIYDASSLESGVPSRFSGSGSGTDFTLTISSLQPEDFATYYCQQFNSYPWTFGQGTKVEIK | 68.5 | – | bound to the Raji B cell line | 2.91 | –
